Publication PMC5651844, “YEATS2 links histone acetylation to tumorigenesis of non-small cell lung cancer” (Nature Communications, 2017)

Molecular target: YEATS domain of human YEATS2 (aa 201-332), tag removed (human) (UniProt Q9ULM3)
Test: ITC; YEATS2_(201-332) titrated with histone peptides, 15 C, 20 mM Tris 7.5, 0.5 M sodium citrate, 5% glycerol, 2 mM beta-mercaptoethanol; one set of binding sites model

Chain of YEATS domain of human YEATS2 (aa 201-332), tag removed (human) (Q9ULM3 201-332): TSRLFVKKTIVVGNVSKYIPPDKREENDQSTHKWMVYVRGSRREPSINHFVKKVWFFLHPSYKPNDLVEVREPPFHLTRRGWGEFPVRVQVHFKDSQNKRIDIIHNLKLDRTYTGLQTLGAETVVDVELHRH
Chain of histone H3 P30A mutant peptide (peptide; modification not given) (chain, as listed by the source P30A): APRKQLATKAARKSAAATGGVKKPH

In the case of “histone H3 P30A mutant peptide (peptide; modification not given)”, the fold drop against the wild-type H3K27ac peptide is reported as 2 fold.
